Experimental data published in publication PMC3519889.

Columns and labels:
[1] = tested on: NarP (SO3982), phosphorylated (Shewanella oneidensis); assay: EMSA; settings: 100 mM Tris/HCl pH 7.4, 20 mM KCl, 10 mM MgCl2, 2 mM DTT, 10% glycerol, 15 C, 60 min, ~2 nM probe, 2 ug poly(dI·dC); 4.8% native PAGE
[2] = tested on: NarP(D57N) (NarP#) (Shewanella oneidensis); assay: EMSA; settings: no binding up to 2 uM, 100 mM Tris/HCl pH 7.4, 20 mM KCl, 10 mM MgCl2, 2 mM DTT, 10% glycerol, 15 C, 60 min, ~2 nM probe, 2 ug poly(dI·dC), 4.8% native PAGE

## nrfA promoter fragment
[1]
  binding: < 0.25 µM
[2]; not phosphorylation-treated
  binding: > 2 µM
[2]; treated with NarQ51-585 and ATP
  binding: > 2 µM
